Assay [1] deals with 59 kDa bovine lung CaM-PDE (expression product of p59KCAMPDE-2 cDNA) (bovine) (UniProt P14100). Kind of assay: cell-based or functional assay.
Assay [2] addresses 63 kDa bovine brain CaM-PDE (expression product of p12.3a cDNA) (bovine) (UniProt Q01061). Kind of assay: cell-based or functional assay.

Sequence of 59 kDa bovine lung CaM-PDE (expression product of p59KCAMPDE-2 cDNA) (bovine) (P14100 other isoform, or with tags, fused parts or gaps limits assumed): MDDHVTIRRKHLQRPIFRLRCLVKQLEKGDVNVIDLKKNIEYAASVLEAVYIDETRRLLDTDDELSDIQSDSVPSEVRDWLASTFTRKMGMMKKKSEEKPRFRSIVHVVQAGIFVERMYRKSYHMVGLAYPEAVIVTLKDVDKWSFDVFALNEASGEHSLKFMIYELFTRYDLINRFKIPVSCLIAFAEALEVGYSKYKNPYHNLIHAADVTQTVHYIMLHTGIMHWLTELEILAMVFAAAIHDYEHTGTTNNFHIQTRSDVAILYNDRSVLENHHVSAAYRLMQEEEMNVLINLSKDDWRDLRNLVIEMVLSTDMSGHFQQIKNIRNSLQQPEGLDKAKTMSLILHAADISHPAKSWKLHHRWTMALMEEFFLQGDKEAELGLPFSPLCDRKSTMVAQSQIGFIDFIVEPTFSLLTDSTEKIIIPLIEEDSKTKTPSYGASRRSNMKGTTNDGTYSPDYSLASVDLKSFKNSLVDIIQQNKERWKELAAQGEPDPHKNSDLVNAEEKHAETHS
Sequence of 63 kDa bovine brain CaM-PDE (expression product of p12.3a cDNA) (bovine) (Q01061 whole entry): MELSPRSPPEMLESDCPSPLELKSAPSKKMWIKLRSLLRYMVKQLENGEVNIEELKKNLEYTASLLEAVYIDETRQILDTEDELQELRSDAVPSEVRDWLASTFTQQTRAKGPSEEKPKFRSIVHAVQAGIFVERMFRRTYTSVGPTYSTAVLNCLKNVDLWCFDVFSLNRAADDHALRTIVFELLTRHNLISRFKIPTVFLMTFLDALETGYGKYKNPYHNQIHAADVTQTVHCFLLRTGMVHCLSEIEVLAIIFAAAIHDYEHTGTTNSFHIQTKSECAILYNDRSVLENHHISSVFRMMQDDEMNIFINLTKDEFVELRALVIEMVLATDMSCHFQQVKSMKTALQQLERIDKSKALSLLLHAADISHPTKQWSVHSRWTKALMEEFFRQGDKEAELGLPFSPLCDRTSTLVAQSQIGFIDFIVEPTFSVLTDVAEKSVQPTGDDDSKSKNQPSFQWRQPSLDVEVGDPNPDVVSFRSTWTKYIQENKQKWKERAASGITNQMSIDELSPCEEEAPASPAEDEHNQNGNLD

In assay [1], calmodulin showed a cAMP hydrolytic activity (extracts of transfected COS-7 cells, 2 uM cAMP) of 4 to 5 fold. In assay [2], this substance came in with a CaM-stimulated cAMP phosphodiesterase activity (homogenates of transfected COS-7 cells) of 15 fold and a CaM-stimulated cGMP phosphodiesterase activity (homogenates of transfected COS-7 cells) of 12 fold.
